{"source": "patent US7687474B2", "about": "“Nitroreductase enzymes” (The Board of Trustees of the Leland Stanford Junior …, priority 2005, dated 2010)", "molecules": {"B1": {"name": "Y6: evolved YieF enzyme with four substitutions: V120A, Y128N, T160N and Q175L (protein, UniProt P0AGE6 1-188, looked up, variant V120A Y128N T160N Q175L)", "Quinone reductase": "MSEKLQVVTLLGSLRKGSFNGMVARTLPKIAPASMEVNALPSIADIPLYDADVQQEEGFPATVEALAEQIRQADGVVIVTPEYNYSVPGGLKNAIDWLSRLPDQPLAGKPVLIQTSSMGAIGGARCQNHLRQILVFLDAMVMNKPEFMGGVIQNKVDPQNGEVIDQGTLDHLTGLLTAFGEFIQRVKI"}, "B2": {"name": "YieF: native E. coli NAD(P)H oxidoreductase ChrR (formerly called YieF), SEQ ID NO:1 (protein)", "chain": "B1 Quinone reductase with E57D, A120V, N128Y, N160T, G167S, L175Q", "modifications": "E. coli"}}, "key": {"SL 7838": {"tested_on": "SL 7838", "experiment": "Effect of prodrugs on the delivery strain SL 7838", "conditions": "CB 1954 15 μM", "text": "We tested the S. typhimurium strain 7838 (SL 7838), transformed with different plasmids (see Methods), as a potential vehicle to attain this objective. IPTG was used to induce the wild type and mutant enzymes encoded by the plasmids. In these experiments, the prodrugs were activated by bacteria producing the specified enzymes instead of, as in previous experiments, the added enzymes."}, "ChrR": {"molecular_target": "T1, ChrR (Escherichia coli, UniProt P0AGE6, E57D/G167S)", "T1 construct": "made in house; host or cells: E. coli BL21 (DE3)", "assay_type": "biochemical, E. coli", "conditions": "CNOB versus CB 1954", "description": "To evaluate if CNOB competes with CB 1954 on the active site of the enzyme we performed a competition assay."}, "HeLa cells [1]": {"tested_on": "HeLa cells", "experiment": "Confocal imaging of CNOB reduction in HeLa cells infected with SL 7838 expressing GFP and Y6", "assay_type": "cell-based, Human", "conditions": "HeLa cells infected with SL 7838 expressing GFP and Y6 (FIG. 8)"}, "HeLa cells [2]": {"tested_on": "HeLa cells", "conditions": "for HeLa cell killing by CNOB: CNOB as prodrug, pure protein (FIG. 7)"}, "HeLa cells [3]": {"tested_on": "HeLa cells", "experiment": "Cell survival assay using SL 7838 to deliver the wild type or evolved enzymes", "assay_type": "cell-based, Human", "conditions": "for amount of bacteria required / killing of surface-adhered HeLa-luc cells: SL 7838 expressing the enzyme, 15 μM CB 1954, 1 h + 3 h incubation, luciferase read-out (FIG. 6)", "text": "Cell survival assay, using SL 7838 to deliver the wild type or evolved enzymes. SL 7838 contains deletions in the aroA and sopE genes. This strain is non-pathogenic in immunocompetent mice, but can colonize and persist in solid tumors. The strain was transformed with appropriate plasmids to express the yief (now chrR), nfsA or theY6 (now chrR6)-encoding yieFY6 gene. It was also transformed with a vector containing the lux operon, expressing the bacterial luciferase (product of the luxR gene) and its substrate. HeLa cells stably transfected to express firefly luciferase were added to black walled 96-well plates at a density of 1000 cells well^−1. Once the cells had attached, a dilution series of non-transformed SL 7838 or SL 7838 transformed with plasmids expressing the appropriate genes (Table 1) was added to the plates; 0.5 mM IPTG was added to induce the genes on the plasmids. After 1 h incubation, 15 μM CB 1954 was added. Light output per well produced from bacterial luciferase (no additional substrate added) or bacterial and firefly luciferase (following addition of 2 μl of 30 mg ml^−1 luciferin per well) was measured on an IVIS50 system (Xenogen Corp.). Percentage HeLa cell survival was determined by calculating firefly luciferase expression (total light output—bacterial light output) relative to wells containing unchallenged HeLa cells or HeLa cells treated with 70% ethanol. All experiments were performed at least in triplicate; error bars in the figures are SEM.\nSL 7838 as a delivery vehicle to tumor cells. […] We tested the S. typhimurium strain 7838 (SL 7838), transformed with different plasmids (see Methods), as a potential vehicle to attain this objective. IPTG was used to induce the wild type and mutant enzymes encoded by the plasmids. […]\nFurther analysis was performed to test the efficiency of SL 7838 to deliver the enzymes to surface-adhered HeLa cells. […] After a further 3 h incubation period the firefly luciferase substrate (luciferin) was added, and the light output was used to quantify HeLa cell survival (FIG. 6)."}, "HeLa cells [4]": {"tested_on": "HeLa cells", "experiment": "Viability test: prodrug activated by purified enzyme, loss of HeLa cell viability", "experimental": "Viability tests. As mentioned in the Results section, these involved two incubation periods, prodrug activation, followed by assay of the toxic moiety generated by determining the loss of HeLa cell viability. […] Following prodrug reduction at 37° C., 0.5 ml of fresh HeLa cells (˜0.5-1×10^5) were added. The duration of the prodrug reduction was 30 min in all experiments; the HeLa cell exposure periods were as specified in the text. After the latter incubation, 20 μl of the color reagent, CellTiter 96®AqueousOne (PROMEGA Inc) were added to 100 μl aliquots of the reaction mixture. Following an additional 1 h of incubation, A490 was measured in a BioTek microplate S330 reader.\nProdrug activation by wild type YieF and the evolved enzymes. […] The experiments involved two incubation periods. In the first period, the enzyme and the drug were incubated to generate the toxic species; in the second period, which was initiated with the addition of HeLa cells to the reaction mixture, the extent of drug activation was inferred from the loss of HeLa cell viability. In the experiments described in this section, both the prodrug reduction and the subsequent cell exposure periods were of 30 min duration, and the enzyme and drug concentrations were 50 μg ml^−1 and 15 μM, respectively. […]"}}, "note": "Positions count from the first letter of the chain named. Names and notes keep the numbering of the source.", "data": [{"molecule": "NC(=O)c1cc(N2CC2)c([N+](=O)[O-])cc1[N+](=O)[O-]", "note": "[CB 1954, 5-aziridinyl-2,4-dinitrobenzamide]", "values": [{"measurement": "effect on replication of SL7838", "setting": "SL 7838", "value": "did not inhibit replication"}]}, {"molecule": "O=c1c(Cl)c2oc3cc([N+](=O)[O-])ccc3nc-2c2ccccc12", "note": "[CNOB]", "values": [{"measurement": "mode of inhibition in competition assay", "setting": "ChrR", "value": "competitive inhibitors of each other"}, {"measurement": "bystander effect (red fluorescence in uninfected cells)", "setting": "HeLa cells [1]", "value": "effective bystander effect"}, {"measurement": "prodrug efficiency in in vitro cytotoxicity assays", "setting": "HeLa cells [2]; compared with CB1954", "value": "same efficiency as CB1954"}]}, {"molecule": "B1", "values": [{"measurement": "amount of bacteria required / killing of surface-adhered HeLa-luc cells", "setting": "HeLa cells [3]", "value": "at least an order of magnitude less bacteria"}, {"measurement": "reduction in survival of HeLa cells", "setting": "HeLa cells [3]; in the presence of CB 1954 (15 μM), enzyme expressed by SL 7838 bacteria, IPTG induced (FIG. 5)", "value": 90, "unit": "%"}, {"measurement": "HeLa cell killing by CNOB", "setting": "HeLa cells [2]", "value": "more active"}, {"measurement": "greater reduction in HeLa cells survival compared to the controls", "setting": "HeLa cells [4]; 15 μM MMC or CB 1954, 50 μg ml^−1 enzyme (FIG. 1)", "value": "~90", "unit": "%"}, {"measurement": "activity for prodrug reduction relative to wild type", "setting": "HeLa cells [4]; MMC or CB 1954 (FIG. 1)", "value": "improved activity for prodrug reduction"}]}, {"molecule": "B2", "values": [{"measurement": "amount of bacteria required / killing of surface-adhered HeLa-luc cells", "setting": "HeLa cells [3]", "value": "scarcely greater than seen in controls"}, {"measurement": "HeLa cell killing by CNOB", "setting": "HeLa cells [2]", "value": "significant increase of cell killing compared to the control"}]}]}
